This is an account of results in PMC5240623, “Methylation specific targeting of a chromatin remodeling complex from sponges to humans” (Scientific Reports, 2017).

The target in this experiment is T1, HsGATAD2A coiled-coil domain, uncleaved fusion peptide (human, UniProt Q86YP4 137-178).
T1 construct: GATAD2A (p66α), human, coiled-coil domain; the purification of this construct is not described here; also called GATAD2A (p66α)
Description: ITC; fusion peptides left uncleaved; 50 mM Hepes pH 7.4, 150 mM NaCl, 298 K; MicroCal Auto-iTC200, 20–24 injections; HsMBD2 (1.8 mM), EmGATAD2A/B (2.74 mM), DmGATAD2A/B (2.5 mM) injected into HsGATAD2A (100 μM), EmMBD2/3 (270 μM), DmMBD2/3 (250 μM); one-site binding model. The conditions noted are these: both partners purified. In general terms: ITC needs no label: the signal is the heat of the interaction.

No end group written: not given here.

T1 sequence (Q86YP4 137-178): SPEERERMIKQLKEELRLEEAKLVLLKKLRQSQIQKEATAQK

B1: HsMBD2 coiled-coil domain, uncleaved fusion peptide (domain or fragment, human)
chain: KAFIVTDEDIRKQEERVQQVRKKLEEALMADILS
modifications: also: uncleaved fusion tag
notes: MBD2, human, coiled-coil domain; the purification of this construct is not described here
For the molecule B1, the Kd (in general, the free concentration of one partner at which half of the binding sites on the other are occupied at equilibrium, for simple one-to-one binding) was determined as 48 nM; the dH was -9.93 kcal/mol; the stoichiometry N – broadly, the number of molecules, sites or subunits per partner or assembly – came out at 1.3.
